The term Kd denotes the concentration at which binding is half-saturated.

In assay [1] the target is T1, human 14-3-3γ, wild-type (human, UniProt P61981 2-247).
T1 construct: 14-3-3 protein gamma, human; d14-3-3γ is the same protein after extensive dialysis into phosphate-free 10 mM Na-Hepes, pH 7.4; also called wt-14-3-3γ; d14-3-3γ; source: E. coli (BL-21, codon+), GST fusion purified on glutathione-Sepharose 4B, cleaved by thrombin, further purified
T1 sequence: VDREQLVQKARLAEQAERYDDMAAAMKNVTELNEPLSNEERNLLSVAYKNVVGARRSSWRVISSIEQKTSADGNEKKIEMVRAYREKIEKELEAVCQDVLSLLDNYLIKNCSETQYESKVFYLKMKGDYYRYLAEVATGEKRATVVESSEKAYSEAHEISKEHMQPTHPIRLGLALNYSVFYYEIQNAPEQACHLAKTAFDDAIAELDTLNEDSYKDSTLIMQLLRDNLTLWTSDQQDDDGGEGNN
As to the kind of experiment: SPR; data not shown; Biacore 3000, 25°C; wt-d14-3-3γ immobilised by amine coupling on CM5 (about 5 000 RU); THp-(1-43) injected in 10 mM Na-Hepes, pH 7.4, 0.005% P20; 0 mM salt. Particulars: both partners purified. (In SPR one partner is held on a chip, and binding of the other changes the refractive index at the surface.)

The target in assay [2] is T1, human 14-3-3γ, wild-type. As to the kind of experiment: differential scanning fluorimetry; d14-3-3γ titrated with peptide from a 0.21 mM stock; SYPRO Orange; 20 to 95°C at 2°C/min; shift of Tm fitted to equation 1; legend: 10 µM subunit in 10 mM Na-Hepes, pH 7.4, 150 mM NaCl. The settings on record: both partners purified. In general terms: DSF heats the sample and reads unfolding from a dye or from intrinsic fluorescence.

Where no end group is shown, it is not given here. [ ]: non-standard residue; d: D form. pS = N[C@@H](COP(=O)(O)O)C(=O)O

B1: THp-(1-43), Ser19-phosphorylated N-terminal peptide of human tyrosine hydroxylase isoform 1 (peptide)
peptide: MPTPDATTPQAKGFRRAV[pS]ELDAKQAEAIMSPRFIGRRQSLIE
notes: also called phosphopeptide; source: synthetic peptide (CPC Scientific), approx. 90% purity
In the case of B1, the Kd was ~220 nM with human 14-3-3γ, wild-type [1] and ~190 nM with human 14-3-3γ, wild-type [2].

The values above are taken from article PMC3506662, “The Peripheral Binding of 14-3-3γ to Membranes Involves Isoform-Specific Histidine Residues” (PLoS ONE, 2012).
